± gives the uncertainty stated by the source.
Assay: self-splicing fitness, log relative to wild type (ln ratio); higher = more splicing; Tetrahymena group I intron in knt gene, E. coli kanamycin selection, DiMSum; sequences stand for … in CUCUCU…GGAGGGAAAAGUUAUCAGGCAUGCACCUGGUAGCUAGUCUUUAAACCAAUAGAUUGCAUCGGUUUAAAAGGCAAGACCGUCAAAUUGCGGGAAAGGGGUCAACAGCCGUUCAGUACCAAGUCUCAGGGGAAACUUUGAGAUGGCCUUGCAAAGGGUAUGGUAAUAAGCUGACGGACAUGGUCCUAACCACGCAGCCAAGUCCUAAGUCAACAGAUCUUCUGUUGAUAUGGAUGCAGUUCACAGACUAAAUGUCGGUCGGGGAAGAUGUAUUCUUCUCAUAAGAUAUAGUCGGACCUCUCCUUAAUGGGAGCUAGCGGAUGAAGUGAUGCAACACUGGAGCCGCUGGGAACUAAUUUGUAUGCGAAAGUAUAUUGAUUAGUUUUGGAGUACUCGUGGUCG
Outline: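 Fitness was computed with DiMSum as the error-weighted combination of replicate fold changes, kanamycin versus none, each normalised to wild type. The library randomised all eight intron nucleotides of the P1ex region, with the intron placed in the knt kanamycin-resistance gene on pET-22b(+) in E. coli BL21(DE3). Six replicate transformations were grown overnight at 37°C or 30°C on LB agar with or without 25 μg/mL kanamycin, plus 100 μg/mL carbenicillin, 50 μM IPTG and 0.2% rhamnose. Pooled colonies were amplicon-sequenced on an Illumina HiSeq 2500.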

| Sequence | self-splicing fitness (ln) (30 °C) | self-splicing fitness (ln) (37 °C) |
| --- | --- | --- |
| GAACAGCAAUAUUACGUGAU | -0.746 ± 0.058 | -0.432 ± 0.075 |
| GAACAGCAAUAUUACGUGCA | -1.09 ± 0.065 | 0.0769 ± 0.089 |
| GAACAGCAAUAUUACGUGCG | -0.551 ± 0.065 | -0.41 ± 0.074 |
| GAACAGCAAUAUUACGUGGA | -2.32 ± 0.1 | -1.95 ± 0.094 |
| GAACAGCAAUAUUACGUGGG | -3.42 ± 0.11 | -1.9 ± 0.091 |
| GAACAGCAAUAUUACGUGUU | -3.97 ± 0.17 | -2.61 ± 0.16 |
| GAAGAGCAAUAUUACGAACU | -1.43 ± 0.15 | -0.479 ± 0.17 |
| GAAGAGCAAUAUUACGAAGA | -2.62 ± 0.26 | -2.48 ± 0.24 |
| GAAGAGCAAUAUUACGACGU | -0.922 ± 0.16 | -0.536 ± 0.18 |
| GAAGAGCAAUAUUACGAGCA |  | -1.33 ± 0.33 |
| GAAGAGCAAUAUUACGAUCA | -2.36 ± 0.21 | -1.01 ± 0.19 |
| GAAGAGCAAUAUUACGCAUA | -3.1 ± 0.19 | -2.62 ± 0.22 |
| GAAGAGCAAUAUUACGCCUU | -2.52 ± 0.37 | -1.55 ± 0.33 |
| GAAGAGCAAUAUUACGCGCC | -3.56 ± 0.47 | -1.43 ± 0.26 |
| GAAGAGCAAUAUUACGGAAA | -2.81 ± 0.14 | -2.93 ± 0.22 |
| GAAGAGCAAUAUUACGGCUG | -2.1 ± 0.16 | -1.22 ± 0.18 |
| GAAGAGCAAUAUUACGGGCU | -3.17 ± 0.17 | -3.07 ± 0.28 |
| GAAGAGCAAUAUUACGGGUG | -3.28 ± 0.15 | -2.01 ± 0.17 |
| GAAGAGCAAUAUUACGGUAU | -3.7 ± 0.23 | -2.46 ± 0.31 |
| GAAGAGCAAUAUUACGGUCU | -2.52 ± 0.26 | -0.469 ± 0.24 |
| GAAGAGCAAUAUUACGUAUU | -3.86 ± 0.28 | -1.04 ± 0.13 |
| GAAGAGCAAUAUUACGUCCG | -3.48 ± 0.39 |  |
| GAAGAGCAAUAUUACGUCUG | -2.34 ± 0.14 | -1.76 ± 0.16 |
| GAAUAGCAAUAUUACGACUC | -0.601 ± 0.13 | -1.34 ± 0.18 |

| Sequence | self-splicing fitness (ln) (30 °C) | self-splicing fitness (ln) (37 °C) |
| --- | --- | --- |
| GAAUAGCAAUAUUACGACUG | 0.089 ± 0.15 | -1.43 ± 0.17 |
| GAAUAGCAAUAUUACGACUU | 0.269 ± 0.073 | 0.548 ± 0.092 |
| GAAUAGCAAUAUUACGAUUA | -0.73 ± 0.093 | 0.156 ± 0.11 |
| GAAUAGCAAUAUUACGCAGU | -2.57 ± 0.15 | -0.857 ± 0.12 |
| GAAUAGCAAUAUUACGCCCU | -0.167 ± 0.19 | 0.00214 ± 0.21 |
| GAAUAGCAAUAUUACGCCUG | -0.487 ± 0.14 | -0.504 ± 0.16 |
| GAAUAGCAAUAUUACGCGGC | -1.42 ± 0.19 | -2.38 ± 0.3 |
| GAAUAGCAAUAUUACGCGGG |  | -0.0263 ± 0.25 |
| GAAUAGCAAUAUUACGCUUG | -0.781 ± 0.11 | -0.818 ± 0.14 |
| GAAUAGCAAUAUUACGGCGG | -2.65 ± 0.18 | -0.799 ± 0.13 |
| GAAUAGCAAUAUUACGGUUG | -1.27 ± 0.092 | -0.561 ± 0.13 |
| GAAUAGCAAUAUUACGUAAG | -2.32 ± 0.14 | -0.886 ± 0.18 |
| GAAUAGCAAUAUUACGUACA | -1.7 ± 0.14 | -0.774 ± 0.2 |
| GAAUAGCAAUAUUACGUCCG | -1.39 ± 0.15 | -1.33 ± 0.22 |
| GAAUAGCAAUAUUACGUGCG | -1.2 ± 0.074 | -0.181 ± 0.094 |
| GAAUAGCAAUAUUACGUGCU | -2.04 ± 0.14 | -0.626 ± 0.12 |
| GAAUAGCAAUAUUACGUGGA | -3.38 ± 0.25 | -1.17 ± 0.15 |
| GAAUAGCAAUAUUACGUGGU | -3.01 ± 0.15 | -2.74 ± 0.24 |
| GAAUAGCAAUAUUACGUGUC | -3.72 ± 0.27 | -2.58 ± 0.14 |
| GAAUAGCAAUAUUACGUUAG | -3.39 ± 0.2 | -1.94 ± 0.18 |
| GAAUAGCAAUAUUACGUUUU | -3.38 ± 0.16 | -0.859 ± 0.11 |
| GACAAGCAAUAUUACGAAAU | -2.47 ± 0.14 | -0.766 ± 0.14 |
| GACAAGCAAUAUUACGAACG | -1.55 ± 0.13 | -0.997 ± 0.22 |
| GACAAGCAAUAUUACGAAUG | -2.42 ± 0.1 | -0.875 ± 0.098 |

| Sequence | self-splicing fitness (ln) (30 °C) | self-splicing fitness (ln) (37 °C) |
| --- | --- | --- |
| GACAAGCAAUAUUACGAGCC | -1.08 ± 0.18 | -0.366 ± 0.15 |
| GACAAGCAAUAUUACGAGCG | -1 ± 0.074 | -0.88 ± 0.088 |
| GACAAGCAAUAUUACGAUUG | -1.77 ± 0.078 | -1.54 ± 0.14 |
| GACAAGCAAUAUUACGCCCA | -0.451 ± 0.086 | -0.609 ± 0.13 |
| GACAAGCAAUAUUACGCCCU | -0.581 ± 0.14 | 0.33 ± 0.15 |
| GACAAGCAAUAUUACGCCGC | -3.31 ± 0.4 | -2.97 ± 0.43 |
| GACAAGCAAUAUUACGCUGG | -2.84 ± 0.14 | -1.97 ± 0.17 |
| GACAAGCAAUAUUACGGAAC | -1.94 ± 0.1 | -1.69 ± 0.17 |
| GACAAGCAAUAUUACGGAGG | -4.57 ± 0.31 | -2.08 ± 0.19 |
| GACAAGCAAUAUUACGGCCA | -0.973 ± 0.11 | -0.192 ± 0.15 |
| GACAAGCAAUAUUACGGGCC | -1.81 ± 0.18 | -1.96 ± 0.17 |
| GACAAGCAAUAUUACGGUGG | -2.01 ± 0.066 | -1.88 ± 0.092 |
| GACAAGCAAUAUUACGUAAA | -1.75 ± 0.069 | -1.09 ± 0.091 |
| GACAAGCAAUAUUACGUAAG | -2.11 ± 0.12 | -1.36 ± 0.14 |
| GACAAGCAAUAUUACGUACG | -1.82 ± 0.077 | -0.508 ± 0.091 |
| GACAAGCAAUAUUACGUAUC | -3.31 ± 0.15 | -0.876 ± 0.14 |
| GACAAGCAAUAUUACGUUAU | -3.17 ± 0.11 | -1.5 ± 0.095 |
| GACCAGCAAUAUUACGAAUU | -0.37 ± 0.073 | -0.374 ± 0.1 |
| GACCAGCAAUAUUACGACCU | 0.00245 ± 0.074 | -0.389 ± 0.073 |
| GACCAGCAAUAUUACGACGA | -0.236 ± 0.091 | 0.15 ± 0.1 |
| GACCAGCAAUAUUACGAUCG | -0.875 ± 0.091 | -0.444 ± 0.1 |
| GACCAGCAAUAUUACGAUUC | -0.023 ± 0.075 | -0.543 ± 0.08 |
| GACCAGCAAUAUUACGAUUG | -2.1 ± 0.073 | -1.08 ± 0.084 |
| GACCAGCAAUAUUACGCCAG | -3.98 ± 0.28 | -0.652 ± 0.19 |

| Sequence | self-splicing fitness (ln) (30 °C) | self-splicing fitness (ln) (37 °C) |
| --- | --- | --- |
| GACCAGCAAUAUUACGCCCG | -1.72 ± 0.12 | -0.754 ± 0.13 |
| GACCAGCAAUAUUACGCGGA | -1.06 ± 0.1 | -0.442 ± 0.1 |
| GACCAGCAAUAUUACGCUUC | -2.01 ± 0.1 | -1.66 ± 0.14 |
| GACCAGCAAUAUUACGGACC | -2.21 ± 0.17 | -2.38 ± 0.33 |
| GACCAGCAAUAUUACGGAUA | -0.244 ± 0.058 | 0.0596 ± 0.075 |
| GACCAGCAAUAUUACGGCUU | -0.0255 ± 0.055 | -0.293 ± 0.07 |
| GACCAGCAAUAUUACGGGAA | -0.695 ± 0.06 | -0.941 ± 0.067 |
| GACCAGCAAUAUUACGGUAC | -2.05 ± 0.09 | -1.75 ± 0.092 |
| GACCAGCAAUAUUACGGUGU | -0.661 ± 0.055 | -0.365 ± 0.084 |
| GACCAGCAAUAUUACGUCAU | -1.66 ± 0.058 | -0.747 ± 0.062 |
| GACCAGCAAUAUUACGUCCC | -0.756 ± 0.12 | -0.522 ± 0.13 |
| GACCAGCAAUAUUACGUCUG | -2.93 ± 0.23 | -1.74 ± 0.21 |
| GACCAGCAAUAUUACGUGAG | -1.33 ± 0.055 | -1 ± 0.064 |
| GACCAGCAAUAUUACGUGGC | -4.25 ± 0.21 | -2.88 ± 0.16 |
| GACCAGCAAUAUUACGUUAC | -1.65 ± 0.052 | -0.38 ± 0.067 |
| GACCAGCAAUAUUACGUUUA | -0.372 ± 0.051 | -0.0736 ± 0.062 |
| GACCAGCAAUAUUACGUUUC | -0.69 ± 0.065 | -0.568 ± 0.083 |
| GACGAGCAAUAUUACGAAAG | -3.59 ± 0.43 | -1.53 ± 0.37 |
| GACGAGCAAUAUUACGAACU | -1.83 ± 0.11 | -0.278 ± 0.11 |
| GACGAGCAAUAUUACGACUC | -1.36 ± 0.15 | 0.797 ± 0.18 |
| GACGAGCAAUAUUACGACUG | -2.47 ± 0.21 | -0.443 ± 0.25 |
| GACGAGCAAUAUUACGCAAC | -2.11 ± 0.29 | -2.31 ± 0.42 |
| GACGAGCAAUAUUACGCCCA | -2.06 ± 0.3 | -2.17 ± 0.28 |
| GACGAGCAAUAUUACGCGAA | -2.91 ± 0.31 | -1.16 ± 0.21 |
